From PMC9356133, “Regulatory mechanisms of lipopolysaccharide synthesis in Escherichia coli” (Nature Communications, 2022)

B1: LapB cytoplasmic domain (LapB_(cyto)) (domain or fragment, Escherichia coli strain CFT073, UniProt P0AB58 21-389, looked up)
chain: RRSAQQNKQDEANRLSRDYVAGVNFLLSNQQDKAVDLFLDMLKEDTGTVEAHLTLGNLFRSRGEVDRAIRIHQTLMESASLTYEQRLLAIQQLGRDYMAAGLYDRAEDMFNQLTDETDFRIGALQQLLQIYQATSEWQKAIDVAERLVKLGKDKQRVEIAHFYCELALQHMASDDLDRAMTLLKKGAAADKNSARVSIMMGRVFMAKGEYAKAVESLQRVISQDRELVSETLEMLQTCYQQLGKTAEWAEFLQRAVEENTGADAELMLADIIEARDGSEAAQVYITRQLQRHPTMRVFHKLMDYHLNEAEEGRAKESLMVLRDMVGEKVRSKPRYRCQKCGFTAYTLYWHCPSCRAWSTIKPIRGLDGL
B2: LpxC labeled with Atto488 (enzyme, Escherichia coli strain CFT073, UniProt P0A725 1-305, looked up)
chain: MIKQRTLKRIVQATGVGLHTGKKVTLTLRPAPANTGVIYRRTDLNPPVDFPADAKSVRDTMLCTCLVNEHDVRISTVEHLNAALAGLGIDNIVIEVNAPEIPIMDGSAAPFVYLLLDAGIDELNCAKKFVRIKETVRVEDGDKWAEFKPYNGFSLDFTIDFNHPAIDSSNQRYAMNFSADAFMRQISRARTFGFMRDIEYLQSRGLCLGGSFDCAIVVDDYRVLNEDGLRFEDEFVRHKMLDAIGDLFMCGHNIIGAFTAYKSGHALNNKLLQAVLAKQEAWEYVTFQDDAELPLAFKAPSAVLA
modifications: Atto488 dye (Atto488 protein labeling kit, protein to dye ratio of 6:1)
notes: LpxC, amplified from Escherichia coli strain CFT073 genomic DNA; His tag removed by 3C protease; also called LpxC-Atto488; source: E. coli BL21 Star (DE3) pLysS, purified (Ni-NTA, 3C cleavage, gel filtration), labeled with Atto488; not shown: His tag, N-terminal, cleaved

Columns and labels:
[1] = target: B2; test: cell-based or functional assay
[2] = target: B1; test: inhibition of a protease assay (Kd calculated from the IC50); 0.06 μM FtsH/LapB complex on POPC liposomes, 1.8 μM LpxC-Atto488, 0-12.96 μM LapB_(cyto) in solution, 37 °C, 20 min; Kd = (IC50 – 2KM/3)/2; conditions: both partners purified
FtsH (non-tagged) = FtsH (non-tagged) (Escherichia coli strain CFT073, UniProt P0AAI3 1-644); test: cell-based or functional assay
Chain of FtsH (non-tagged) (P0AAI3 whole entry): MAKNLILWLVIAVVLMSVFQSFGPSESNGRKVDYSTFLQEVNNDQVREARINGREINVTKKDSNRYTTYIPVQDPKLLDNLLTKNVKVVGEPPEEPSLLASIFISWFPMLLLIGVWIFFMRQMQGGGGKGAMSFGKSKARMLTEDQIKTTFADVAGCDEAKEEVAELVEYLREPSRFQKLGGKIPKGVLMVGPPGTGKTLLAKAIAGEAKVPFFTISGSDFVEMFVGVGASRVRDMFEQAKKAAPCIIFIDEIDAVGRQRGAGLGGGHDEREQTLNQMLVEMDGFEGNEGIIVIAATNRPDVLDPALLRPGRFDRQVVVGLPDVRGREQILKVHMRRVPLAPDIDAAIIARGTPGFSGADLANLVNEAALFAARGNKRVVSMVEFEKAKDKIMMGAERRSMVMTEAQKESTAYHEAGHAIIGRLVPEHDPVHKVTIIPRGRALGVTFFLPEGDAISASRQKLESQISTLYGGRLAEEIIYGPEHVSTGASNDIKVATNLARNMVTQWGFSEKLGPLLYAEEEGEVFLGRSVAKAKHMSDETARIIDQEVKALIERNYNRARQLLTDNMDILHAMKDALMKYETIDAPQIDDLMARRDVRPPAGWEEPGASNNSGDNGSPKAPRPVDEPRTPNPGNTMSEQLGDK

Binder | IC50 of inhibition of LpxC-Atto488 degradation by FtsH/LapB proteoliposomes (0-12.96 μM LapB_(cyto)) [1] | Kd [2] | fold reduction by LapB of the KM for LpxC degradation by FtsH proteoliposomes (FtsH (non-tagged))
B1 | 3960 nM | – | –
B2 | – | 1340 nM | ~8 fold
